In patent US20210395392A1 (Bristol-Myers Squibb, published 2021):

How the values were obtained:
[1] = biological target: T1, Recombinant soluble extracellular domain of cynomolgus monkey MerTK (cynomolgus monkey, UniProt Q12866 21-505 (human entry)); assay: SPR, mAb captured, soluble MerTK ECD as analyte, 37 C
T1 construct: SPR analyte; also called cMerTK; Cynomolgus MerTK
T1 chain: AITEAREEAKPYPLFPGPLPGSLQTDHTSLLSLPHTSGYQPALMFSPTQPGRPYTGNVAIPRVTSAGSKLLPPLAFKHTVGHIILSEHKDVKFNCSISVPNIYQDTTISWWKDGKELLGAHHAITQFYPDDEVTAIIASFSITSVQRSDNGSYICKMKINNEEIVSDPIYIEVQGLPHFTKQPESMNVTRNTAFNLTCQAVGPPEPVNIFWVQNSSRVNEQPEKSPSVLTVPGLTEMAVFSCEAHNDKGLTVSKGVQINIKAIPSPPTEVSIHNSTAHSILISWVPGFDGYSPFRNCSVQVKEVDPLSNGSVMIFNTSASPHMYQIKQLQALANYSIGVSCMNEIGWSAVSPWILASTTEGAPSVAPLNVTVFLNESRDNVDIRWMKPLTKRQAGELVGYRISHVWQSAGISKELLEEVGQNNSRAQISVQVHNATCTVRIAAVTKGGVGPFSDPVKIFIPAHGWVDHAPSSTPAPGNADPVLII
Procedure: (§1) MerTK Abs were captured on the chip. Recombinant soluble forms of the extracellular domains of human, cynomolgus monkey, and mouse MerTK polypeptide were injected as analytes at multiple concentrations each. The resulting sensorgrams were double-referenced and fitted to a 1:1 Langmuir binding model with mass transport.

[2] = biological target: T2, Recombinant soluble extracellular domain of human MerTK (human, UniProt Q12866 21-505); assay: as above
T2 construct: SPR analyte; also called hMerTK
T2 sequence: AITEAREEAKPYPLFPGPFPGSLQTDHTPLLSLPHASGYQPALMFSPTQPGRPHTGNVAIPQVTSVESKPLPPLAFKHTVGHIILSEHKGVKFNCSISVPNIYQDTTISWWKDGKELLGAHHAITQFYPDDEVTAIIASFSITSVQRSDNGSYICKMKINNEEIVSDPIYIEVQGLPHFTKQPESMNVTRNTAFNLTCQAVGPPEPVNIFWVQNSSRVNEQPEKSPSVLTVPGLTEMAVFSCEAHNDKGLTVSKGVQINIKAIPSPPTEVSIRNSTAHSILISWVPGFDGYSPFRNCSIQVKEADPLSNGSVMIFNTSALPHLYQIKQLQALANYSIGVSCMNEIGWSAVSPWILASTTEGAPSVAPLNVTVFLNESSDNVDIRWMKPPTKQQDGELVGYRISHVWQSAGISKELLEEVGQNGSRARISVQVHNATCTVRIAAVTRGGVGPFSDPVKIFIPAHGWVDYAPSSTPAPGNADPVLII
Procedure: as §1

[3] = biological target: T3, Mouse MerTK on mMerTK-expressing cells (mouse, UniProt Q60805 19-994); assay: cell-based or functional assay
T3 sequence: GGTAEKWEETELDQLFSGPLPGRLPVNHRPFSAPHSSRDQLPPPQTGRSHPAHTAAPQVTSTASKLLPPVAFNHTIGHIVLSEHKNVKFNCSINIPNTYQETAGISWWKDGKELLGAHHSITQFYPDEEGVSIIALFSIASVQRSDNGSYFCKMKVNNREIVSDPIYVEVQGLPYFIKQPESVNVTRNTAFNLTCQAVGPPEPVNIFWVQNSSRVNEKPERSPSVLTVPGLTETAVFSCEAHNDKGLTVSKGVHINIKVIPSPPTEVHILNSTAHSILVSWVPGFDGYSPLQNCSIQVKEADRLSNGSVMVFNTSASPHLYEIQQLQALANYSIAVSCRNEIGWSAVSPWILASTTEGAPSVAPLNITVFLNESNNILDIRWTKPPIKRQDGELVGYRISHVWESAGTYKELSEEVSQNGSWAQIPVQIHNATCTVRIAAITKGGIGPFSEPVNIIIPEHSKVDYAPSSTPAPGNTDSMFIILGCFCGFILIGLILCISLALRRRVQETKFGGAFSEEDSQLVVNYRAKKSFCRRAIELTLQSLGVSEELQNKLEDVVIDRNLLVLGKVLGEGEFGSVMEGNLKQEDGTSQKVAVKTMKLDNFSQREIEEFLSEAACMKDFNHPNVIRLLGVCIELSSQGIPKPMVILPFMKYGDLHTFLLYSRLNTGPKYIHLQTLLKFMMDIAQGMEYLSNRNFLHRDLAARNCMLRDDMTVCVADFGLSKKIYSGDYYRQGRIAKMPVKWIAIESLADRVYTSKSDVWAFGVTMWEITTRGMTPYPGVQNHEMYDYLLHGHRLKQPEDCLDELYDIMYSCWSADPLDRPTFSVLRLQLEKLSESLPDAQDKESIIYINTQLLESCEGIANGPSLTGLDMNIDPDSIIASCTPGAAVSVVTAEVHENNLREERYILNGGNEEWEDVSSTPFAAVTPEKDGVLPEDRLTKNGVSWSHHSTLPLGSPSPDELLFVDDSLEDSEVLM

B1: HuMAb 8N42 (antibody, V domains shown)
VH: QVQLQQWGAGLLKPSETLSLTCAVYGGSFSIYYWSWIRQPPGKGLELIGEINDEGNTNYNPSLKSRVTISVDTSKNQFSLKLSSVTAADTAVYYCARGGTGDIHAFDIWGQGTMVTVSS
VL: DIQMTQSPSSLSASVGDRVTITCRASQGISKWLAWYQQKPEKAPKSLIYAASSLQSGVPSRFSGSGSGTDFTLTISSLQPEDFATYYCQQYNSYPWTFGQGTKVEIKR
notes: Human anti-hMerTK mAb, Bin 1
[1]
  Kd: 14 nM
  koff: 0.0014 s⁻¹
  kon: 100000 M⁻¹ s⁻¹
  t1/2: 8.3 min
[2]
  Kd: 5.7 nM
  koff: 0.00168 s⁻¹
  kon: 299000 M⁻¹ s⁻¹
  t1/2: 6.9 min

B2: HuMAb 25J60 (antibody, human IgG1, kappa, V domains shown)
VH: QVQLVQSGAEVKKPGASVKVSCKTSGNTQIRYYMYWVRQAPGQGLEWMGILNPNQDQTTYAQKFQGRVTMTRDTSTSTVYMELSSLRSEDTAVYYCATTYRYYMDVWGQGTTVTVSS
VL: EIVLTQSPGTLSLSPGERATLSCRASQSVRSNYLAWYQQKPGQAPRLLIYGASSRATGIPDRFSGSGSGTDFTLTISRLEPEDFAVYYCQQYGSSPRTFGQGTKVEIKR
notes: Human anti-hMerTK mAb, Bin 2, derived from HuMAb 25B10 by optimization
[1]
  Kd: 2.5 nM
  koff: 0.00099 s⁻¹
  kon: 400000 M⁻¹ s⁻¹
  t1/2: 11.7 min
[2]
  Kd: 2.3 nM
  koff: 0.000975 s⁻¹
  kon: 421000 M⁻¹ s⁻¹
  t1/2: 11.9 min

B3: HuMAb 25J80 (antibody, human IgG1, kappa, V domains shown)
VH: QVQLVQSGAEVKKPGASVKVSCKTSGRTFIRYYMHWVRQAPGQGLEWMGIIWPNGDQTTYAQKFQGRVTMTRDTSTSTVYMELSSLRSEDTAVYYCATTYKYAMDVWGQGTTVTVSS
VL: EIVLTQSPGTLSLSPGERATLSCRASQSVRSNYLAWYQQKPGQAPRLLIYGASSRATGIPDRFSGSGSGTDFTLTISRLEPEDFAVYYCQQYESPPRTFGQGTKVEIKR
notes: as for B2
[1]
  Kd: 4.5 nM
  koff: 0.00124 s⁻¹
  kon: 274000 M⁻¹ s⁻¹
  t1/2: 4.5 min
[2]
  Kd: 4.1 nM
  koff: 0.00123 s⁻¹
  kon: 297000 M⁻¹ s⁻¹
  t1/2: 9.6 min

B4: HuMAb 1B4 (antibody, human IgG1, kappa, V domains shown)
VH: QLQLQESGPGLVKPSETLSLTCAVSGYSISSGNYWGWIRQSPGKGLEWIGSVDHSGSTYYSPSLKSRVTISVDTSKNQFSLKLNSVTAADTADYYCARNTMIRGVMDWFDPWGQGTLVTVSS
VL: AIQLTQSPSSLSASVGDRVTITCRASQGISSALAWYQQKPGKAPKVLIYDASSLESGVPSRFSGSGSGTDFTLTISSLQPEDFATYYCQQFRSYPTFGQGTKVEIKR
notes: Human anti-hMerTK mAb, Bin 1
[1]
  Kd: 54.9 nM
  koff: 0.00796 s⁻¹
  kon: 145000 M⁻¹ s⁻¹
  t1/2: 1.5 min
[2]
  Kd: 34.4 nM
  koff: 0.00844 s⁻¹
  kon: 250000 M⁻¹ s⁻¹
  t1/2: 1.4 min
[3]
  Signaling Assay, mMerTK with Gas6, pSTAT1 IC50 (nM): > 100 nM

B5: HuMAb 22I16 (antibody, human IgG1, kappa, V domains shown)
VH: EVQLVESGGGLVQPGGSLRLSCAASGFTFSSYSMNWVRQAPGKGLEWVSYIISGSDTIFYADSVKGRFTISRDNAKNSLYLQMNSLRDEDTAVYYCARDETVVRGVINYFDYWGQGTLVTVSS
VL: AIQLTQSPSSLSASVGDRVTITCRSSQGISSALAWYQQKPGKAPKLLIYDASSLESGVPSRFSGSGSGTDFTLTISSLQPEDFATYYCQQFISYPTFGQGTRLEIKR
notes: Human anti-hMerTK mAb, Bin 1; also called 22116
[1]
  Kd: 24.7 nM
  koff: 0.00126 s⁻¹
  kon: 50900 M⁻¹ s⁻¹
  t1/2: 10.2 min
[2]
  Kd: 10.6 nM
  koff: 0.000775 s⁻¹
  kon: 73500 M⁻¹ s⁻¹
  t1/2: 14.9 min

B6: HuMAb 4K10 (antibody, human IgG1, kappa, V domains shown)
VH: QVQLQQWGAGLLKPSETLSLTCAVYGGSFSGYYWSWLRQPPGKGLEWIGEISHSGSTNYNPSLKSRVTISVDTSKNQFSLKLSSVTAADTAVYYCARALSRYWYFDLWGRGTLVTVSS
VL: EIVLTQSPATLSLSPGERATLSCRASQSASNYLAWYQQKPGQAPRLLIYDASNRATGIPARFSGSGSGTDFTLTISSLEPEDFAVYYCYQRSQWPISFGQGTRLEIKR
notes: Human anti-hMerTK mAb, Bin 3
[1]
  Kd: 31.3 nM
  koff: 0.00379 s⁻¹
  kon: 121000 M⁻¹ s⁻¹
  t1/2: 3 min
[2]
  Kd: 27.8 nM
  koff: 0.00336 s⁻¹
  kon: 121000 M⁻¹ s⁻¹
  t1/2: 3.4 min
